The assay deals with RhoA (blot label: Myc (RhoA); legend: RhoA-GFP). In words: co-immunoprecipitation (IP: Myc (RhoA)) with densitometry. The following applies: MN-1 cells, mean ± SEM, parent: est. 1.0, read off a plot.

This is an account of results in PMC7933254.

With “TRPV4-FLAG (wild type), expressed in MN-1 cells (from UniProt Q9HBA0) R237L”, the ratio to parent (R237L TRPV4-FLAG alone, no TRPV4-GFP co-expressed (lane 4), n = 5) worked out at 0.05 and the ratio to parent (R237L TRPV4-FLAG co-expressed with WT TRPV4-GFP (lane 5), n = 4) was 0.04.
